Measured values: article PMC6595007, “Structural basis for cooperativity of human monoclonal antibodies to meningococcal factor H-binding protein” (Communications Biology, 2019)

Columns and labels:
Details in all cases: both partners purified
[1] = target: T1, factor H-binding protein variant 1 (fHbp var.1), recombinant, full length (Neisseria meningitidis, UniProt E6MV22); experiment: HDX-MS; 54 pmol antibody mixed with an equimolar amount of fHbp var.1, 30 min at room temperature; exposure 30 s to 30 min; difference counted when above 1 Da
T1 construct: source: E. coli BL21 (DE3) Star, pET-21b, purified (HisTrap HP, HiTrap SP HP)

[2] = target: T1, factor H-binding protein variant 1 …; experiment: negative-stain transmission electron microscopy (single particle, random conical tilt); complexes formed at 1:1 molar ratio, 1 h at room temperature, purified on Superdex 200 Increase; diluted to 0.03 mg/ml in 20 mM Tris, 300 mM NaCl, pH 8; 1% uranyl acetate
[3] = target: T1, factor H-binding protein variant 1 …; experiment: SPR
human factor H [4] = target: T2, human factor H (human, UniProt P08603 19-1231); experiment: SPR; quaternary complex: fHbp var.1 captured on immobilised mAb 1A3, second mAb 2C1 injected, then fH at 100 nM, 30 µl/min; HBS-P
T2 construct: also called fH; human fH

human factor H [5] = target: T2, human factor H; experiment: SPR; ternary complex: fHbp var.1 captured on immobilised mAb 1A12 (CM-5), no second mAb; fH injected at 100 nM, 30 µl/min; HBS-P
human factor H [6] = target: T2, human factor H; experiment: SPR; quaternary complex: fHbp var.1 captured on immobilised mAb 7B10, second mAb 2C1 injected, then fH at 100 nM, 30 µl/min; HBS-P
human factor H [7] = target: T2, human factor H; experiment: SPR; quaternary complex: fHbp var.1 captured on immobilised mAb 7B10, second mAb 1A12 injected, then fH at 100 nM, 30 µl/min; HBS-P
human factor H [8] = target: T2, human factor H; experiment: SPR; ternary complex: fHbp var.1 captured on immobilised mAb 1A3 (CM-5), no second mAb; fH injected at 100 nM, 30 µl/min; HBS-P
human factor H [9] = target: T2, human factor H; experiment: SPR; fHbp var.1 captured on immobilised mAb 1A12, second mAb 2C1 injected, then fH at 100 nM, 30 µl/min; HBS-P
human factor H [10] = target: T2, human factor H; experiment: SPR; quaternary complex: fHbp var.1 captured on immobilised mAb 1A3, second mAb 1A12 injected, then fH at 100 nM, 30 µl/min; HBS-P
human factor H [11] = target: T2, human factor H; experiment: SPR; quaternary complex: fHbp var.1 captured on immobilised mAb 1A12, second mAb 1A3 injected, then fH at 100 nM, 30 µl/min; HBS-P
human factor H [12] = target: T2, human factor H; experiment: SPR; fHbp var.1 captured on immobilised mAb 1A12, second mAb 1A12 injected (identical, no signal of the second mAb), then fH at 100 nM, 30 µl/min; HBS-P
human factor H [13] = target: T2, human factor H; experiment: SPR; fHbp var.1 captured on immobilised mAb 1A3, second mAb 1A3 injected (identical, no signal of the second mAb), then fH at 100 nM, 30 µl/min; HBS-P
human factor H [14] = target: T2, human factor H; experiment: SPR; fHbp var.1 captured on immobilised mAb 7B10, second mAb 1A3 injected, then fH at 100 nM, 30 µl/min; HBS-P
human factor H [15] = target: T2, human factor H; experiment: SPR; ternary complex: fHbp var.1 captured on immobilised mAb 7B10 (CM-5), no second mAb; fH injected at 100 nM, 30 µl/min; HBS-P

T2 sequence (P08603 19-1231): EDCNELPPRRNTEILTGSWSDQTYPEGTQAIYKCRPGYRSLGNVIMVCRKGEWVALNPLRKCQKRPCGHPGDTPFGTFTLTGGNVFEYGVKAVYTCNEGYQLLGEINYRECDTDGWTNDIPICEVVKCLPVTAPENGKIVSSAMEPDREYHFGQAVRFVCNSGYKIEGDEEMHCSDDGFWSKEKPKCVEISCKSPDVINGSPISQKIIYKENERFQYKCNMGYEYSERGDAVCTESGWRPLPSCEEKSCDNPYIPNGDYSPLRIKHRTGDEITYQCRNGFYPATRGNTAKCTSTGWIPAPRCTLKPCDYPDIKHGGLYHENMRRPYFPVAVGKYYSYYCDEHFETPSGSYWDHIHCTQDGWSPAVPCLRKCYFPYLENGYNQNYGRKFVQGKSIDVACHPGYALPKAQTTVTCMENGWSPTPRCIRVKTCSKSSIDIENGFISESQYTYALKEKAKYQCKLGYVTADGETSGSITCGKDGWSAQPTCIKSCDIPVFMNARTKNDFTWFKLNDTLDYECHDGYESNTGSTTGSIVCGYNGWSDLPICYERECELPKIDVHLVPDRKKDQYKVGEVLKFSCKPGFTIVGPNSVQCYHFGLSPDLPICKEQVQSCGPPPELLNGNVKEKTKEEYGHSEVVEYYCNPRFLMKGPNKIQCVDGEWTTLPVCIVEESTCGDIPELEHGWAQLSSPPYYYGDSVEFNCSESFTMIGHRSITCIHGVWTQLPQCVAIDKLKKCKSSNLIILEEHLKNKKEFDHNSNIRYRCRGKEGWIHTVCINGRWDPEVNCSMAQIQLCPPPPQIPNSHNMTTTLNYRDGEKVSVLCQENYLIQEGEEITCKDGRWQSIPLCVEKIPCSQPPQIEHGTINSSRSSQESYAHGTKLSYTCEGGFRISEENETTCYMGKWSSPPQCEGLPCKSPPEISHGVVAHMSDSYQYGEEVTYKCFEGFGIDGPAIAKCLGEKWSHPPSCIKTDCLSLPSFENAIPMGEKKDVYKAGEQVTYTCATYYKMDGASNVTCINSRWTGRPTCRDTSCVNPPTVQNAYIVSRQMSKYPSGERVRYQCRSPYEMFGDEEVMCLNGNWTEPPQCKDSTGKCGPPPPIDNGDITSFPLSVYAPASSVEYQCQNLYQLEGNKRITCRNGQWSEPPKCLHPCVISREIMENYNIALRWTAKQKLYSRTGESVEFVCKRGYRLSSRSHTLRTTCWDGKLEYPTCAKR

B1: human monoclonal antibody 7B10 (IgG1) against fHbp (antibody, V domains shown)
VH: QVQLVESGGGLVQPGGSLRLSCVTSGFTFRSYAMTWVRQAPGKGLEWVSSISHSGGSTKYADSVKGRLTISRDDSMDTLYLQMNSLRAEDTAIYYCAKDQISYPAASPLDYWGRGTLVTVSS
VL: EIVLTQSPGTLSLSPGERATLSCRASQSFSSFSLAWYQQKPGQAPRLLIYAPSNRATGIADRFSGSGSGTDFTLTISRLEPEDFAVYYCQQYGSSPITFGQGTRLEIK
notes: also called mAb7B10; mAb 7B10; source: Expi293 cells, transiently transfected, purified (protein G beads)
- binding result [1]: binds

B2: antigen-binding fragment of human mAb 7B10 (Fab, V domains shown)
VH: B1 VH
VL: B1 VL
notes: also called fAb7B10; huFab 7B10; source: E. coli Rosetta 2, purified (His Gravity Trap, HiTrap SP HP)
- binding result [2]: binds

B3: human monoclonal antibody 1A12 (IgG1) against fHbp (antibody, V domains shown)
VH: EVQLVQSGAELKKPGESLKISCKASGYTFTNYWVVWVRQMPGEGLEWMGSIHPRDSDARYSLSFEGRVTFSVDKSTTTAYLQWSSLKVSDSAIYYCARLSQVSGWSPWVGPWGQGTLVTVSS
VL: DIVMTQSPSSLSASVGDRVTITCRASQSISVSLNWYQQKPGKAPKVLIYAASRLQSGIPSRFSGSGSGSHFTLTISSLQPEDFATYYCQETYSDLMYTFGQGTKVEIK
notes: also called mAb1A12; mAb 1A12; source: Expi293 cells, transiently transfected, purified (protein G beads)
- binding result [3]: binds

B4: factor H-binding protein variant 1 (fHbp var.1), recombinant, full length (natural protein)
chain: CSSGGGGVAADIGAGLADALTAPLDHKDKGLQSLTLDQSVRKNEKLKLAAQGAEKTYGNGDSLNTGKLKNDKVSRFDFIRQIEVDGQLITLESGEFQVYKQSHSALTAFQTEQIQDSEHSGKMVAKRQFRIGDIAGEHTSFDKLPEGGRATYRGTAFGSDDAGGKLTYTIDFAAKQGNGKIEHLKSPELNVDLAAADIKPDGKRHAVISGSVLYNQAEKGSYSLGIFGGKAQEVAGSAEVKTVNGIRHIGLAAKQ
notes: source: E. coli BL21 (DE3) Star, pET-21b, purified (HisTrap HP, HiTrap SP HP)
- koff (human factor H [4]): 0.00063 s⁻¹
- koff (human factor H [5]): 0.0016 s⁻¹
- koff (human factor H [6]): 0.00029 s⁻¹
- koff (human factor H [7]): 0.00011 s⁻¹
- koff (human factor H [8]): 0.00074 s⁻¹
- koff (human factor H [9]): 0.043 s⁻¹
- koff (human factor H [10]): 0.00035 s⁻¹
- koff (human factor H [11]): 0.00068 s⁻¹
- koff (human factor H [12]): 0.0018 s⁻¹
- koff (human factor H [13]): 0.00074 s⁻¹
- koff (human factor H [14]): 0.00032 s⁻¹
- koff (human factor H [15]): 0.00032 s⁻¹

B5: antigen-binding fragment of human mAb 2C1 (Fab, V domains shown)
VH: QVQLVESGGGVVQPGRSLRLSCAASGFTFSSFAMHWVRQAPGKGLEWVAVTSFDGKDEYYAASVKGRFSVSRDISKNTVYLQMNSLKTEDTAVYYCAKDRGDWDFDYWGQGTLVTVSS
VL: SYELTQPPSVSVSPGQTATITCSGEKLGDKYTSWYQQKPGQSPVLIIYQDTKRPSGIPARFSGSNSGNTATLTISGTQAVDEADYYCQAWDSYTVPFGGGTKLTVL
notes: also called fAb2C1; huFab 2C1; source: E. coli Rosetta 2, purified (His Gravity Trap, HiTrap SP HP)
- binding result [2]: binds

B6: human monoclonal antibody 2C1 (IgG1) against fHbp (antibody, V domains shown)
VH: B5 VH
VL: B5 VL
notes: also called mAb2C1; mAb 2C1; source: Expi293 cells, transiently transfected, purified (protein G beads)
- binding result [1]: binds

B7: human monoclonal antibody 1A3 (IgG1) against fHbp (antibody, V domains shown)
VH: EVQLVESGGGLVQPGGSLRLSCAASGFTFSSYAMSWVRQAPGKGLEWVSAISGSGGSSHYTDSVKGRFTISRDNSKNTLWLQMNSLRAEDTAIYYCAKTSGSYYYHYEIDVWGQGTTVTVSS
VL: EIVLTQSPGTLSLSPGERATLSCRASQSVSSSYLAWYQQKPGQAPRLLIYGTSNRATGIPDRFSGSGSGTDFTLTVSRLEPEDFAVYYCQQYGSSPCSFGQGTKLELK
notes: also called mAb1A3; mAb 1A3; source: Expi293 cells, transiently transfected, purified (protein G beads)
- binding result [3]: binds
